Bridge positions count the residues as written; N and C are the ends. Square brackets hold non-standard residues; d marks the D form. Ends that are not written are not given here. Bip = N[C@@H](Cc1ccc(-c2ccccc2)cc1)C(=O)O; 2Nal = N[C@@H](Cc1ccc2ccccc2c1)C(=O)O; d2Nal = N[C@H](Cc1ccc2ccccc2c1)C(=O)O; Bta = N[C@@H](Cc1csc2ccccc12)C(=O)O; hArg = N=C(N)NCCCC[C@H](N)C(=O)O; Pen = CC(C)(S)[C@H](N)C(=O)O; Nle = CCCC[C@H](N)C(=O)O; Aib = CC(C)(N)C(=O)O; Ava = NCCCCC(=O)O; GABA = NCCCC(=O)O; βAla = NCCC(=O)O
Columns and labels:
hMC3-R (human) [1] = target: hMC3-R (human) (UniProt P41968); assay: cell-based or functional assay
Chain of hMC3-R (human) (P41968 whole entry): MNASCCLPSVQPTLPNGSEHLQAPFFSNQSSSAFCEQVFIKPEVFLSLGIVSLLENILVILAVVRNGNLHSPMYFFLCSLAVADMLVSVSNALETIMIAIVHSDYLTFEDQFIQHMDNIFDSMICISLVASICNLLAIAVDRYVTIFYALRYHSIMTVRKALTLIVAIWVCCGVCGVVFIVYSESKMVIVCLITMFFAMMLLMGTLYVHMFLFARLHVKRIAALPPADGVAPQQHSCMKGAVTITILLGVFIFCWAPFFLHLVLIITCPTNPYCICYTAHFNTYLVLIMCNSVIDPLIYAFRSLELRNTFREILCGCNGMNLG

hMC4-R (human) [2] = target: hMC4-R (human) (UniProt P32245); assay: cell-based or functional assay
Chain of hMC4-R (human) (P32245 whole entry): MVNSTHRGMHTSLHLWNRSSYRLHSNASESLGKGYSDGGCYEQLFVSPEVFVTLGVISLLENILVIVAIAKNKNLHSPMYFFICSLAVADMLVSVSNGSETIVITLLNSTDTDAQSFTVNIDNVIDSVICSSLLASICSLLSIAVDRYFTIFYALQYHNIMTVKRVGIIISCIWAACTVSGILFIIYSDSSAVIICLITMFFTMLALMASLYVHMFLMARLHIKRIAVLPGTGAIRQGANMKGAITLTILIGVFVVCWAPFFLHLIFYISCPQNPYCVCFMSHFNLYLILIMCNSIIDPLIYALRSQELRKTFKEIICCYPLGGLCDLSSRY

hMC5-R (human) [3] = target: hMC5-R (human) (UniProt P33032); assay: cell-based or functional assay
Chain of hMC5-R (human) (P33032 whole entry): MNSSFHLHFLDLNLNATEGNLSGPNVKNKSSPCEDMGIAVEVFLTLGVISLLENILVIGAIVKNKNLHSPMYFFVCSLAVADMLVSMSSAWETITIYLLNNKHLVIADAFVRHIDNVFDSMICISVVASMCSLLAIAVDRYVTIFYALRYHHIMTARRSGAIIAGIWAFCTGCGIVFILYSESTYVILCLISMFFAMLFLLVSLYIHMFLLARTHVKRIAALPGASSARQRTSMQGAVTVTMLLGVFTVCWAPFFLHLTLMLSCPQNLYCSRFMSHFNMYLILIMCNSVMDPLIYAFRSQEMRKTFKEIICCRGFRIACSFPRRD

hMC1-R (human) [4] = target: hMC1-R (human) (UniProt Q01726); assay: cell-based or functional assay
Chain of hMC1-R (human) (Q01726 whole entry): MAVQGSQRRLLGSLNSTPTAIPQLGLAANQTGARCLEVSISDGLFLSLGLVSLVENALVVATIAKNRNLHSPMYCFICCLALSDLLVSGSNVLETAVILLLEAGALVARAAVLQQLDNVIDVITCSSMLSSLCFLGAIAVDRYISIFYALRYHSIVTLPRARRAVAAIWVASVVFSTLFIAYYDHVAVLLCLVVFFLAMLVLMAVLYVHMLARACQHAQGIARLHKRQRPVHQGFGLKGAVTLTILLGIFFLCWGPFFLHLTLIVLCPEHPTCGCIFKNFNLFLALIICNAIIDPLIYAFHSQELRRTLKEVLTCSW

[5] = target: human melanocortin receptor subtype 5 (hMC5-R) (human), P33032; assay: [125I]-NDP-α-MSH competition, membranes
Chain of human melanocortin receptor subtype 5 (hMC5-R) (human), P33032 (P33032 whole entry): as the sequence (P33032 whole entry) above

[6] = target: human melanocortin receptor subtype 1 (hMC1-R) (human), Q01726; assay: [125I]-NDP-α-MSH competition, membranes
Chain of human melanocortin receptor subtype 1 (hMC1-R) (human), Q01726 (Q01726 whole entry): as the sequence (Q01726 whole entry) above

[7] = target: human melanocortin receptor subtype 4 (hMC4-R) (human), P32245; assay: [125I]-NDP-α-MSH competition, membranes
Chain of human melanocortin receptor subtype 4 (hMC4-R) (human), P32245 (P32245 whole entry): as the sequence (P32245 whole entry) above

hMC3-R (human) [8] = target: hMC3-R (human) (UniProt P41968); assay: competition with [125I]-NDP-α-MSH, CHO-K1 membranes
hMC4-R (human) [9] = target: hMC4-R (human) (UniProt P32245); assay: as above
hMC5-R (human) [10] = target: hMC5-R (human) (UniProt P33032); assay: as above
hMC1-R (human) [11] = target: hMC1-R (human) (UniProt Q01726); assay: as above
hMC1-R (human) [12] = target: hMC1-R (human) (UniProt Q01726); assay: ratio Ki hMC1-R / Ki hMC4-R, same assay

Binder | cAMP EC50 (hMC3-R (human) [1]) | cAMP EC50 (hMC4-R (human) [2]) | cAMP EC50 (hMC5-R (human) [3]) | cAMP EC50 (hMC1-R (human) [4]) | also measured
Ac-RCH[dF]RW[GABA][Pen]-NH2 (disulfide 2-8; SMILES CC(=O)N[C@@H](CCCNC(=N)N)C(=O)N[C@H]1CSSC(C)(C)[C@@H](C(N)=O)NC(=O)CCCNC(=O)[C@H](Cc2c[nH]c3ccccc23)NC(=O)[C@H](CCCNC(=N)N)NC(=O)[C@@H](Cc2ccccc2)NC(=O)[C@H](Cc2c[nH]cn2)NC1=O) [Ac-Arg-c(Cys-His-D-Phe-Arg-Trp-Gaba-Pen)-NH2] | 8.09 nM | 0.719 nM | 23.2 nM | 4.23 nM | 
Ac-YRC[dA]H[dF]RWC-NH2 (disulfide 3-9) [Ac-Tyr-Arg-c(Cys-D-Ala-His-D-Phe-Arg-Trp-Cys)-NH2] |  |  |  |  | Ki [5]: 714 nM
Ac-[dR]CH[dF]RW[GABA][Pen]-NH2 (disulfide 2-8; SMILES CC(=O)N[C@H](CCCNC(=N)N)C(=O)N[C@H]1CSSC(C)(C)[C@@H](C(N)=O)NC(=O)CCCNC(=O)[C@H](Cc2c[nH]c3ccccc23)NC(=O)[C@H](CCCNC(=N)N)NC(=O)[C@@H](Cc2ccccc2)NC(=O)[C@H](Cc2c[nH]cn2)NC1=O) [Ac-D-Arg-c(Cys-His-D-Phe-Arg-Trp-Gaba-Pen)-NH2] | 32.4 nM | 0.959 nM | 2140 nM | 8.43 nM | 
[Nle]CH[dF]RW[GABA]C-NH2 (disulfide 2-8) [Nle-c(Cys-His-D-Phe-Arg-Trp-Gaba-Cys)-NH2] | 0.1 nM | 0.021 nM | 1.7 nM | 0.37 nM | 
[dF]CH[d(Et)Tyr][hArg]W[βAla][dC]T-NH2 (disulfide 2-8) [D-Phe-c(Cys-His-D-(Et)Tyr-hArg-Trp-β-Ala-D-Cys)-Thr-NH2] | 2.71 nM | 5380 nM | 2.38 nM | 0.345 nM | 
[Nle]CH[dF]RW[Ava]C-NH2 (disulfide 2-8; N-terminus assumed; SMILES CCCC[C@H](N)C(=O)N[C@H]1CSSC[C@@H](C(N)=O)NC(=O)CCCCNC(=O)[C@H](Cc2c[nH]c3ccccc23)NC(=O)[C@H](CCCNC(=N)N)NC(=O)[C@@H](Cc2ccccc2)NC(=O)[C@H](Cc2c[nH]cn2)NC1=O) [Nle-c(Cys-His-D-Phe-Arg-Trp-Apn-Cys)-NH2] | 0.27 nM | 0.018 nM | 3.1 nM | 0.31 nM | 
Ac-[Nle]CH[dF]RW[Ava]C-NH2 (disulfide 2-8; SMILES CCCC[C@H](NC(C)=O)C(=O)N[C@H]1CSSC[C@@H](C(N)=O)NC(=O)CCCCNC(=O)[C@H](Cc2c[nH]c3ccccc23)NC(=O)[C@H](CCCNC(=N)N)NC(=O)[C@@H](Cc2ccccc2)NC(=O)[C@H](Cc2c[nH]cn2)NC1=O) [Ac-Nle-c(Cys-His-D-Phe-Arg-Trp-Apn-Cys)-NH2] | 0.199 nM | 0.0492 nM | 1.73 nM | 0.76 nM | 
Ac-CEH[d2Nal]R[Bta]ACPPKD[βAla]Y[Aib]RKKRRQRRR-NH2 (disulfide 1-8; SMILES CC(=O)N[C@H]1CSSC[C@@H](C(=O)N2CCC[C@H]2C(=O)N2CCC[C@H]2C(=O)N[C@@H](CCCCN)C(=O)N[C@@H](CC(=O)O)C(=O)NCCC(=O)N[C@@H](Cc2ccc(O)cc2)C(=O)NC(C)(C)C(=O)N[C@@H](CCCNC(=N)N)C(=O)N[C@@H](CCCCN)C(=O)N[C@@H](CCCCN)C(=O)N[C@@H](CCCNC(=N)N)C(=O)N[C@@H](CCCNC(=N)N)C(=O)N[C@@H](CCC(N)=O)C(=O)N[C@@H](CCCNC(=N)N)C(=O)N[C@@H](CCCNC(=N)N)C(=O)N[C@@H](CCCNC(=N)N)C(N)=O)NC(=O)[C@H](C)NC(=O)[C@H](Cc2csc3ccccc23)NC(=O)[C@H](CCCNC(=N)N)NC(=O)[C@@H](Cc2ccc3ccccc3c2)NC(=O)[C@H](Cc2c[nH]cn2)NC(=O)[C@H](CCC(=O)O)NC1=O) |  |  | 582 nM | 67.1 | cAMP Kb (hMC3-R (human) [1]): 439; cAMP Kb (hMC4-R (human) [2]): 46.5
Ac-[Nle]D[dA]H[dF]R[Bta]K-NH2 (lactam 2-8; SMILES CCCC[C@H](NC(C)=O)C(=O)N[C@H]1CC(=O)NCCCC[C@@H](C(N)=O)NC(=O)[C@H](Cc2csc3ccccc23)NC(=O)[C@H](CCCNC(=N)N)NC(=O)[C@@H](Cc2ccccc2)NC(=O)[C@H](Cc2c[nH]cn2)NC(=O)[C@@H](C)NC1=O) [Ac-Nle-c(Asp-D-Ala-His-D-Phe-Arg-Bal-Lys)-NH2] | 3.22 nM | 1.65 nM | > 10000 nM | 0.931 nM | 
CEHXRXACPPKDXYGRKKRRQRRR (N-terminal acetyl; X4=D-2-Nal; X6=Bal; X13=β-Ala; Cys1-Cys8 disulfide; C-terminal amide) |  |  | 1800 nM | 37.9 | cAMP Kb (hMC3-R (human) [1]): 112; cAMP Kb (hMC4-R (human) [2]): 41.1
IC[dA]H[dF]RWC-NH2 (disulfide 2-8; also: hydantoin ring from C(O) with Ile1-Cys2) [c[Hydantoin(C(O)-(Ile-Cys))-D-Ala-His-D-Phe-Arg-Trp-Cys]-NH2] |  |  |  |  | Ki [6]: 53.4 nM; Ki [7]: 41.6 nM
[dF]CH[dF][hArg]W[βAla][dC]T-NH2 (disulfide 2-8; N-terminus assumed; SMILES C[C@@H](O)[C@H](NC(=O)[C@H]1CSSC[C@H](NC(=O)[C@H](N)Cc2ccccc2)C(=O)N[C@@H](Cc2c[nH]cn2)C(=O)N[C@H](Cc2ccccc2)C(=O)N[C@@H](CCCCNC(=N)N)C(=O)N[C@@H](Cc2c[nH]c3ccccc23)C(=O)NCCC(=O)N1)C(N)=O) [D-Phe-c(Cys-His-D-Phe-hArg-Trp-β-Ala-D-Cys)-Thr-NH2] |  |  |  |  | Ki (hMC3-R (human) [8]): 123 nM; Ki (hMC4-R (human) [9]): 10.3 nM; Ki (hMC5-R (human) [10]): 521 nM; Ki (hMC1-R (human) [11]): 0.442 nM; Ki hMC1-R/MC4-R (hMC1-R (human) [12]): 0.04
[dF]CH[d(Et)Tyr][hArg][Bip][βAla][dC]T-NH2 (disulfide 2-8) [D-Phe-c(Cys-His-D-(Et)Tyr-hArg-Bip-β-Ala-D-Cys)-Thr-NH2] | 81.8 nM | 86.9 nM | 31.8 nM | 0.685 nM | 
Ac-[Nle]C[dL]H[dF]RWC-NH2 (disulfide 2-8; SMILES CCCC[C@H](NC(C)=O)C(=O)N[C@H]1CSSC[C@@H](C(N)=O)NC(=O)[C@H](Cc2c[nH]c3ccccc23)NC(=O)[C@H](CCCNC(=N)N)NC(=O)[C@@H](Cc2ccccc2)NC(=O)[C@H](Cc2c[nH]cn2)NC(=O)[C@@H](CC(C)C)NC1=O) [Ac-Nle-c(Cys-D-Leu-His-D-Phe-Arg-Trp-Cys)-NH2] | 0.465 nM | 0.0915 nM | 78.5 nM | 3.24 nM | 
Ac-CEH[d2Nal]R[2Nal][Aib]CPPKD-NH2 (disulfide 1-8; SMILES CC(=O)N[C@H]1CSSC[C@@H](C(=O)N2CCC[C@H]2C(=O)N2CCC[C@H]2C(=O)N[C@@H](CCCCN)C(=O)N[C@@H](CC(=O)O)C(N)=O)NC(=O)C(C)(C)NC(=O)[C@H](Cc2ccc3ccccc3c2)NC(=O)[C@H](CCCNC(=N)N)NC(=O)[C@@H](Cc2ccc3ccccc3c2)NC(=O)[C@H](Cc2c[nH]cn2)NC(=O)[C@H](CCC(=O)O)NC1=O) [Ac-c(Cys-Glu-His-D-2-Nal-Arg-2-Nal-Aib-Cys)-Pro-Pro-Lys-Asp-NH2] |  |  | 869 nM | 770 | cAMP Kb (hMC3-R (human) [1]): 221; cAMP Kb (hMC4-R (human) [2]): 4.52
GCEH[dF]RWC-NH2 (disulfide 2-8; also: residues 1-2 joined in a hydantoin ring (C(O))) [c[Hydantoin(C(O)-(Gly-Cys))-Glu-His-D-Phe-Arg-Trp-Cys]-NH2] | 21.8 nM | 0.576 nM | 1780 nM | 14.5 nM | 
[dF]CH[d(Et)Tyr]RW[βAla][dC]T-NH2 (disulfide 2-8) [D-Phe-c(Cys-His-D-(Et)Tyr-Arg-Trp-β-Ala-D-Cys)-Thr-NH2] | 1.1 nM | 0.11 nM | 0.37 nM | 0.35 nM | 
RGCAHXRWC (residues 1-2 joined in a hydantoin ring (C(O)); D-Ala4; X6=D-2-Nal; Cys3-Cys9 disulfide; C-terminal amide) [Hydantoin(C(O)-(Arg-Gly))-c(Cys-D-Ala-His-D-2-Nal-Arg-Trp-Cys)-NH2] | 13.1 nM | 21.2 nM | 103 nM | 96.6 nM | 
Ac-[Nle]CH[dF]RW[GABA][Pen]-NH2 (disulfide 2-8) [Ac-Nle-c(Cys-His-D-Phe-Arg-Trp-Gaba-Pen)-NH2] | 0.24 nM | 0.028 nM | 3.9 nM | 0.28 nM | 
XCAHFRWCXXYGRKKRRQRRR (N-terminal acetyl; X1=Nle; D-Ala3; D-Phe5; X9=Doc; X10=Doc; Cys2-Cys8 disulfide; C-terminal amide) [Ac-Nle-c(Cys-D-Ala-His-D-Phe-Arg-Trp-Cys)-(Doc)2-Tyr-Gly-Arg-Lys-Lys-Arg-Arg-Gln-Arg-Arg-Arg-NH2] |  |  | 147 nM | 4.7 | 
CEHXRXACPPKDXYGRKKRRQRRR (N-terminal acetyl; X4=D-2-Nal; X6=1-Nal; X13=β-Ala; Cys1-Cys8 disulfide; C-terminal amide) |  |  | 1290 nM | 43.3 | cAMP Kb (hMC3-R (human) [1]): 215; cAMP Kb (hMC4-R (human) [2]): 5.87
CEHXRXACPPKDXYGRKKRRQRRR (N-terminal acetyl; X4=D-2-Nal; X6=2-Nal; X13=β-Ala; Cys1-Cys8 disulfide; C-terminal amide) |  |  | 82.9 nM | 29.7 | cAMP Kb (hMC3-R (human) [1]): 25.6; cAMP Kb (hMC4-R (human) [2]): 7.37
Ac-CEH[d2Nal]RWACPPKD-NH2 (disulfide 1-8; SMILES CC(=O)N[C@H]1CSSC[C@@H](C(=O)N2CCC[C@H]2C(=O)N2CCC[C@H]2C(=O)N[C@@H](CCCCN)C(=O)N[C@@H](CC(=O)O)C(N)=O)NC(=O)[C@H](C)NC(=O)[C@H](Cc2c[nH]c3ccccc23)NC(=O)[C@H](CCCNC(=N)N)NC(=O)[C@@H](Cc2ccc3ccccc3c2)NC(=O)[C@H](Cc2c[nH]cn2)NC(=O)[C@H](CCC(=O)O)NC1=O) [Ac-c(Cys-Glu-His-D-2-Nal-Arg-Trp-Ala-Cys)-Pro-Pro-Lys-Asp-NH2] |  |  | 6.84 nM | 66.1 | cAMP Kb (hMC3-R (human) [1]): 33.4; cAMP Kb (hMC4-R (human) [2]): 0.687
